Assay results published in the supplement of paper PMC7877785.
± gives the uncertainty stated by the source.

Assay: self-splicing fitness, log relative to wild type (ln ratio); higher = more splicing; Tetrahymena group I intron in knt gene, E. coli kanamycin selection, DiMSum; sequences stand for … in CUCUCU…GGAGGGAAAAGUUAUCAGGCAUGCACCUGGUAGCUAGUCUUUAAACCAAUAGAUUGCAUCGGUUUAAAAGGCAAGACCGUCAAAUUGCGGGAAAGGGGUCAACAGCCGUUCAGUACCAAGUCUCAGGGGAAACUUUGAGAUGGCCUUGCAAAGGGUAUGGUAAUAAGCUGACGGACAUGGUCCUAACCACGCAGCCAAGUCCUAAGUCAACAGAUCUUCUGUUGAUAUGGAUGCAGUUCACAGACUAAAUGUCGGUCGGGGAAGAUGUAUUCUUCUCAUAAGAUAUAGUCGGACCUCUCCUUAAUGGGAGCUAGCGGAUGAAGUGAUGCAACACUGGAGCCGCUGGGAACUAAUUUGUAUGCGAAAGUAUAUUGAUUAGUUUUGGAGUACUCGUGGUCG
Summary of the method: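 Fitness was computed with DiMSum as the error-weighted combination of replicate fold changes, kanamycin versus none, each normalised to wild type. The library randomised all eight intron nucleotides of the P1ex region, with the intron placed in the knt kanamycin-resistance gene on pET-22b(+) in E. coli BL21(DE3). Six replicate transformations were grown overnight at 37°C or 30°C on LB agar with or without 25 μg/mL kanamycin, plus 100 μg/mL carbenicillin, 50 μM IPTG and 0.2% rhamnose. Pooled colonies were amplicon-sequenced on an Illumina HiSeq 2500.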

| Sequence | self-splicing fitness (ln) (30 °C) | self-splicing fitness (ln) (37 °C) |
| --- | --- | --- |
| CUCUAGCAAUAUUACGGGAC | -2.77 ± 0.19 | -3.65 ± 0.46 |
| CUCUAGCAAUAUUACGGGUC | -5.03 ± 0.34 | -2.21 ± 0.18 |
| CUCUAGCAAUAUUACGGUAA | -2.38 ± 0.24 | -2.14 ± 0.21 |
| CUCUAGCAAUAUUACGUACG | -2.5 ± 0.23 | -1.4 ± 0.17 |
| CUCUAGCAAUAUUACGUCGA | -4.25 ± 0.42 | -0.879 ± 0.19 |
| CUCUAGCAAUAUUACGUCGG | -3.22 ± 0.22 | -1.57 ± 0.18 |
| CUCUAGCAAUAUUACGUGCA | -2.34 ± 0.43 | – |
| CUGAAGCAAUAUUACGAAAU | -3.78 ± 0.27 | -2.38 ± 0.25 |
| CUGAAGCAAUAUUACGACCC | -2.58 ± 0.38 | – |
| CUGAAGCAAUAUUACGAGAU | -2.63 ± 0.15 | -1.57 ± 0.15 |
| CUGAAGCAAUAUUACGAGCA | -3.59 ± 0.19 | -2.01 ± 0.2 |
| CUGAAGCAAUAUUACGAGGU | -3.28 ± 0.11 | -2.41 ± 0.17 |
| CUGAAGCAAUAUUACGAUGG | -0.0919 ± 0.065 | 0.123 ± 0.095 |
| CUGAAGCAAUAUUACGCAAG | -0.812 ± 0.12 | 0.142 ± 0.18 |
| CUGAAGCAAUAUUACGCACC | -2.27 ± 0.34 | – |
| CUGAAGCAAUAUUACGCGGA | -3.45 ± 0.16 | -1.7 ± 0.2 |
| CUGAAGCAAUAUUACGCGUA | -4.36 ± 0.36 | -1.98 ± 0.26 |
| CUGAAGCAAUAUUACGCUCG | -0.21 ± 0.086 | -0.613 ± 0.087 |
| CUGAAGCAAUAUUACGCUUG | -2.33 ± 0.13 | -1.79 ± 0.14 |
| CUGAAGCAAUAUUACGGUAC | -2.82 ± 0.18 | -2.71 ± 0.26 |
| CUGAAGCAAUAUUACGGUCU | -4.07 ± 0.36 | -2.24 ± 0.27 |
| CUGAAGCAAUAUUACGGUGU | -3.3 ± 0.1 | -2.95 ± 0.12 |
| CUGAAGCAAUAUUACGUAAG | -0.797 ± 0.08 | 0.0174 ± 0.086 |
| CUGAAGCAAUAUUACGUAUU | -3.86 ± 0.22 | -2.85 ± 0.3 |
| CUGAAGCAAUAUUACGUGAG | -0.269 ± 0.044 | 0.305 ± 0.065 |
| CUGAAGCAAUAUUACGUGCC | – | -1.64 ± 0.49 |

| Sequence | self-splicing fitness (ln) (30 °C) | self-splicing fitness (ln) (37 °C) |
| --- | --- | --- |
| CUGAAGCAAUAUUACGUUUA | -3.97 ± 0.24 | – |
| CUGAAGCAAUAUUACGUUUC | -2.72 ± 0.41 | – |
| CUGCAGCAAUAUUACGACAC | -3.35 ± 0.23 | -3.61 ± 0.33 |
| CUGCAGCAAUAUUACGACUC | -3.27 ± 0.26 | -1.98 ± 0.27 |
| CUGCAGCAAUAUUACGACUU | -2.66 ± 0.14 | -2.25 ± 0.17 |
| CUGCAGCAAUAUUACGAUAG | -1.16 ± 0.11 | -0.167 ± 0.12 |
| CUGCAGCAAUAUUACGCCGA | – | -2.61 ± 0.36 |
| CUGCAGCAAUAUUACGCCGC | – | -2.23 ± 0.45 |
| CUGCAGCAAUAUUACGCGCA | -3.37 ± 0.15 | -2.13 ± 0.15 |
| CUGCAGCAAUAUUACGCGGA | -2.29 ± 0.21 | -2.21 ± 0.31 |
| CUGCAGCAAUAUUACGCUGG | -3.66 ± 0.23 | -2.64 ± 0.25 |
| CUGCAGCAAUAUUACGGACA | – | -1.44 ± 0.28 |
| CUGCAGCAAUAUUACGGACG | -0.355 ± 0.14 | 0.179 ± 0.15 |
| CUGCAGCAAUAUUACGGAUG | -1.16 ± 0.061 | -0.415 ± 0.081 |
| CUGCAGCAAUAUUACGGCCU | -3.23 ± 0.17 | -1.56 ± 0.15 |
| CUGCAGCAAUAUUACGGUGU | -4.57 ± 0.36 | -2.37 ± 0.24 |
| CUGCAGCAAUAUUACGUAGG | -0.76 ± 0.057 | -0.512 ± 0.07 |
| CUGCAGCAAUAUUACGUGAA | -4.94 ± 0.45 | -3.45 ± 0.23 |
| CUGCAGCAAUAUUACGUGCG | -1.67 ± 0.093 | -1.26 ± 0.11 |
| CUGCAGCAAUAUUACGUUAA | -3.5 ± 0.24 | -3.02 ± 0.27 |
| CUGCAGCAAUAUUACGUUGC | -3.71 ± 0.26 | -2.18 ± 0.29 |
| CUGGAGCAAUAUUACGAACA | -2.85 ± 0.42 | -1.64 ± 0.48 |
| CUGGAGCAAUAUUACGACUC | – | -2.39 ± 0.41 |
| CUGGAGCAAUAUUACGAGAC | – | -0.723 ± 0.29 |
| CUGGAGCAAUAUUACGAGAU | -4.02 ± 0.39 | -2.49 ± 0.44 |
| CUGGAGCAAUAUUACGAGUA | -2.08 ± 0.26 | -3.21 ± 0.35 |

| Sequence | self-splicing fitness (ln) (30 °C) | self-splicing fitness (ln) (37 °C) |
| --- | --- | --- |
| CUGGAGCAAUAUUACGCAGC | -3.72 ± 0.49 | -0.0349 ± 0.47 |
| CUGGAGCAAUAUUACGCCGC | – | -1.1 ± 0.38 |
| CUGGAGCAAUAUUACGCGAU | -2.76 ± 0.16 | -1.9 ± 0.15 |
| CUGGAGCAAUAUUACGCUAG | – | -2.79 ± 0.36 |
| CUGGAGCAAUAUUACGGCCG | -0.999 ± 0.27 | – |
| CUGGAGCAAUAUUACGGGGU | -3.12 ± 0.31 | -1.53 ± 0.27 |
| CUGGAGCAAUAUUACGGGUU | -2.29 ± 0.18 | -2.91 ± 0.28 |
| CUGGAGCAAUAUUACGGUGA | -2.75 ± 0.24 | -3.22 ± 0.35 |
| CUGGAGCAAUAUUACGUAUG | -1.78 ± 0.12 | -0.437 ± 0.14 |
| CUGGAGCAAUAUUACGUCAA | -2.69 ± 0.44 | -1.19 ± 0.47 |
| CUGGAGCAAUAUUACGUCGG | -3.08 ± 0.26 | – |
| CUGGAGCAAUAUUACGUCUA | -1.72 ± 0.3 | -0.483 ± 0.23 |
| CUGGAGCAAUAUUACGUUAA | -3.18 ± 0.37 | -2.05 ± 0.24 |
| CUGGAGCAAUAUUACGUUAC | -2.8 ± 0.23 | -1.42 ± 0.41 |
| CUGGAGCAAUAUUACGUUCG | -4.29 ± 0.3 | -1.77 ± 0.19 |
| CUGGAGCAAUAUUACGUUUA | -3.17 ± 0.18 | -3.28 ± 0.22 |
| CUGGAGCAAUAUUACGUUUU | – | -3.48 ± 0.42 |
| CUGUAGCAAUAUUACGAAUU | – | -2.7 ± 0.3 |
| CUGUAGCAAUAUUACGACGC | -2.3 ± 0.35 | -2.79 ± 0.27 |
| CUGUAGCAAUAUUACGCACU | -1.84 ± 0.37 | -2.25 ± 0.31 |
| CUGUAGCAAUAUUACGCGGU | -3.17 ± 0.23 | -2.33 ± 0.24 |
| CUGUAGCAAUAUUACGCGUC | – | -2.41 ± 0.45 |
| CUGUAGCAAUAUUACGCGUU | -4.19 ± 0.3 | -2.26 ± 0.18 |
| CUGUAGCAAUAUUACGCUCU | -3.47 ± 0.39 | – |
| CUGUAGCAAUAUUACGCUGA | -1.34 ± 0.16 | -3.78 ± 0.29 |
| CUGUAGCAAUAUUACGCUGG | – | -0.992 ± 0.34 |

| Sequence | self-splicing fitness (ln) (30 °C) | self-splicing fitness (ln) (37 °C) |
| --- | --- | --- |
| CUGUAGCAAUAUUACGGAGG | -4.1 ± 0.27 | -2.64 ± 0.26 |
| CUGUAGCAAUAUUACGGAUG | -3.23 ± 0.27 | -0.812 ± 0.18 |
| CUGUAGCAAUAUUACGGUAC | – | -2.59 ± 0.28 |
| CUGUAGCAAUAUUACGGUGG | -3.05 ± 0.14 | -1.49 ± 0.11 |
| CUGUAGCAAUAUUACGUAGC | -5.54 ± 0.36 | -2.93 ± 0.32 |
| CUGUAGCAAUAUUACGUAUA | -3.03 ± 0.4 | -2.67 ± 0.28 |
| CUGUAGCAAUAUUACGUCAC | -3.21 ± 0.24 | – |
| CUGUAGCAAUAUUACGUCAU | -4.07 ± 0.3 | -3.14 ± 0.24 |
| CUGUAGCAAUAUUACGUGUU | -4.29 ± 0.17 | -0.79 ± 0.13 |
| CUUAAGCAAUAUUACGAACG | -0.163 ± 0.11 | 0.187 ± 0.14 |
| CUUAAGCAAUAUUACGACCU | -1.75 ± 0.39 | – |
| CUUAAGCAAUAUUACGCAUU | -3.82 ± 0.2 | -1.92 ± 0.17 |
| CUUAAGCAAUAUUACGCGAG | -4.13 ± 0.34 | -3.57 ± 0.33 |
| CUUAAGCAAUAUUACGCUCA | -2.78 ± 0.22 | -2.01 ± 0.5 |
| CUUAAGCAAUAUUACGCUUG | -4.19 ± 0.39 | -2.78 ± 0.31 |
| CUUAAGCAAUAUUACGCUUU | -3.13 ± 0.11 | -2.26 ± 0.15 |
| CUUAAGCAAUAUUACGGACC | – | -0.536 ± 0.36 |
| CUUAAGCAAUAUUACGGCCA | -2.95 ± 0.44 | – |
| CUUAAGCAAUAUUACGGUUC | -4.11 ± 0.19 | -3.1 ± 0.26 |
| CUUAAGCAAUAUUACGUGAU | -2.63 ± 0.092 | -0.627 ± 0.093 |
| CUUAAGCAAUAUUACGUUGA | – | -2.78 ± 0.29 |
| CUUCAGCAAUAUUACGAACC | -1.67 ± 0.41 | -1.18 ± 0.35 |
| CUUCAGCAAUAUUACGAAUC | -1.04 ± 0.2 | -1.06 ± 0.19 |
| CUUCAGCAAUAUUACGACAA | -2.42 ± 0.21 | -2.52 ± 0.31 |
| CUUCAGCAAUAUUACGACGG | -2.16 ± 0.13 | -0.57 ± 0.23 |
| CUUCAGCAAUAUUACGAGCA | – | -2.16 ± 0.28 |
